Experimental data published in publication PMC10540216, “Activity Guided Azide-methyllysine Photo-trapping for Substrate Profiling of Lysine Demethylases” (Journal of the American Chemical Society, 2023).
“Also recorded” adds a separate entry of the source.

B1: KDM4A: full-length wild-type KDM4A overexpressed in HEK293T cells (protein, UniProt O75164 1-1064, looked up)
chain: MASESETLNPSARIMTFYPTMEEFRNFSRYIAYIESQGAHRAGLAKVVPPKEWKPRASYDDIDDLVIPAPIQQLVTGQSGLFTQYNIQKKAMTVREFRKIANSDKYCTPRYSEFEELERKYWKNLTFNPPIYGADVNGTLYEKHVDEWNIGRLRTILDLVEKESGITIEGVNTPYLYFGMWKTSFAWHTEDMDLYSINYLHFGEPKSWYSVPPEHGKRLERLAKGFFPGSAQSCEAFLRHKMTLISPLMLKKYGIPFDKVTQEAGEFMITFPYGYHAGFNHGFNCAESTNFATRRWIEYGKQAVLCSCRKDMVKISMDVFVRKFQPERYKLWKAGKDNTVIDHTLPTPEAAEFLKESELPPRAGNEEECPEEDMEGVEDGEEGDLKTSLAKHRIGTKRHRVCLEIPQEVSQSELFPKEDLSSEQYEMTECPAALAPVRPTHSSVRQVEDGLTFPDYSDSTEVKFEELKNVKLEEEDEEEEQAAAALDLSVNPASVGGRLVFSGSKKKSSSSLGSGSSRDSISSDSETSEPLSCRAQGQTGVLTVHSYAKGDGRVTVGEPCTRKKGSAARSFSERELAEVADEYMFSLEENKKSKGRRQPLSKLPRHHPLVLQECVSDDETSEQLTPEEEAEETEAWAKPLSQLWQNRPPNFEAEKEFNETMAQQAPHCAVCMIFQTYHQVEFGGFNQNCGNASDLAPQKQRTKPLIPEMCFTSTGCSTDINLSTPYLEEDGTSILVSCKKCSVRVHASCYGVPPAKASEDWMCSRCSANALEEDCCLCSLRGGALQRANDDRWVHVSCAVAILEARFVNIAERSPVDVSKIPLPRFKLKCIFCKKRRKRTAGCCVQCSHGRCPTAFHVSCAQAAGVMMQPDDWPFVVFITCFRHKIPNLERAKGALQSITAGQKVISKHKNGRFYQCEVVRLTTETFYEVNFDDGSFSDNLYPEDIVSQDCLQFGPPAEGEVVQVRWTDGQVYGAKFVASHPIQMYQVEFEDGSQLVVKRDDVYTLDEELPKRVKSRLSVASDMRFNEIFTEKEVKQEKKRQRVINSRYREDYIEPALYRAIME
modifications: full-length
B2: G9a: full-length G9a methyltransferase expressed in HEK293T cells (protein, UniProt Q96KQ7 1-1210, looked up)
chain: MAAAAGAAAAAAAEGEAPAEMGALLLEKETRGATERVHGSLGDTPRSEETLPKATPDSLEPAGPSSPASVTVTVGDEGADTPVGATPLIGDESENLEGDGDLRGGRILLGHATKSFPSSPSKGGSCPSRAKMSMTGAGKSPPSVQSLAMRLLSMPGAQGAAAAGSEPPPATTSPEGQPKVHRARKTMSKPGNGQPPVPEKRPPEIQHFRMSDDVHSLGKVTSDLAKRRKLNSGGGLSEELGSARRSGEVTLTKGDPGSLEEWETVVGDDFSLYYDSYSVDERVDSDSKSEVEALTEQLSEEEEEEEEEEEEEEEEEEEEEEEEDEESGNQSDRSGSSGRRKAKKKWRKDSPWVKPSRKRRKREPPRAKEPRGVNGVGSSGPSEYMEVPLGSLELPSEGTLSPNHAGVSNDTSSLETERGFEELPLCSCRMEAPKIDRISERAGHKCMATESVDGELSGCNAAILKRETMRPSSRVALMVLCETHRARMVKHHCCPGCGYFCTAGTFLECHPDFRVAHRFHKACVSQLNGMVFCPHCGEDASEAQEVTIPRGDGVTPPAGTAAPAPPPLSQDVPGRADTSQPSARMRGHGEPRRPPCDPLADTIDSSGPSLTLPNGGCLSAVGLPLGPGREALEKALVIQESERRKKLRFHPRQLYLSVKQGELQKVILMLLDNLDPNFQSDQQSKRTPLHAAAQKGSVEICHVLLQAGANINAVDKQQRTPLMEAVVNNHLEVARYMVQRGGCVYSKEEDGSTCLHHAAKIGNLEMVSLLLSTGQVDVNAQDSGGWTPIIWAAEHKHIEVIRMLLTRGADVTLTDNEENICLHWASFTGSAAIAEVLLNARCDLHAVNYHGDTPLHIAARESYHDCVLLFLSRGANPELRNKEGDTAWDLTPERSDVWFALQLNRKLRLGVGNRAIRTEKIICRDVARGYENVPIPCVNGVDGEPCPEDYKYISENCETSTMNIDRNITHLQHCTCVDDCSSSNCLCGQLSIRCWYDKDGRLLQEFNKIEPPLIFECNQACSCWRNCKNRVVQSGIKVRLQLYRTAKMGWGVRALQTIPQGTFICEYVGELISDAEADVREDDSYLFDLDNKDGEVYCIDARYYGNISRFINHLCDPNIIPVRVFMLHQDLRFPRIAFFSSRDIRTGEELGFDYGDRFWDIKSKYFTCQCGSEKCKHSAEAIALEQSRLARLDPHPELLPELGSLPPVNT
modifications: full-length
notes: full-length G9a methyltransferase expressed in HEK293T cells

Key:
Format in all cases: cell-based, human
CBX1-eIF4A3 interaction [1] = experiment: Immunoprecipitation using CBX1 antibody from HEK293T cells, eIF4A3 immunoblot; conditions: vs control vector
Method: concentration. The samples were then heated to 65°C for 15 minutes and loaded into a 4-12% polyacrylamide gel for Western blotting.
22. Immunoprecipitation using eIF4A3 and CBX1 antibodies […]
Then 4 mg of nuclear extracts were added and left mixing overnight at 4°C. The following day, the beads were pelleted, and the supernatant was removed.
The beads were washed twice with 50 mM Tris pH 7.5, 100 mM KCl, 0.1% Triton X. Laemmli dye (4X) was added to “elution buffer” from the Protein A Dynabead kit for a final 1X concentration. Each sample received 60 µL of the denaturing elution solution and was then incubated at 65°C for 15 minutes. The beads were pelleted on the magnetic rack and the supernatants were collected to perform Western blots. […]
Each microcentrifuge tube received an CBX1 antibody mixture containing 10 µL antibody (ProteinTech cat. # 10241-2-AP). The antibodies […]
were incubated with the beads using gentle agitation for 1 hour at 4°C. The beads were then washed 2x with conjugation buffer (200 µl of 20 mM sodium phosphate, 0.15M NaCl). BS3 crosslinking solution (250 µl of 5 mM BS3 in conjugation buffer) was added to each aliquot and incubated at room temperature for 20 minutes. The supernatant was removed and a second round of BS3 solution was administered for 5 minutes at room temperature. […]

[2] = system: eIF4A3 trimethylation in HEK293T cells; experiment: Immunoprecipitation of eIF4A3 from HEK293T cells and Kme3 immunoblot; conditions: eIF4A3 IP, pan-Kme3 immunoblot, vs control vector or control siRNA
CBX1-eIF4A3 interaction [3] = experiment: Interactome pull-down of eIF4A3 using recombinant CBX1 from HEK293T nuclear extracts; conditions: 6xHis CBX1, Ni-NTA beads

Molecule | eIF4A3 enrichment by endogenous CBX1 (IP) (CBX1-eIF4A3 interaction [1]) | eIF4A3 Kme3 level [2] | eIF4A3 enrichment by recombinant CBX1 pull-down (CBX1-eIF4A3 interaction [3])
B1 | decreased in KDM4A-transfected cells; also recorded: reduced it compared to control vector-transfected cells | significantly reduced the Kme3 level; also recorded: robustly deceases eIF4A3 methylation; also recorded: robust eIF4A3 demethylation | decreased the association
B2 | increased in G9a-transfected cells; also recorded: robust enrichment of eIF4A3 by CBX1 | increased Kme3 compared to the control vector; also recorded: considerable increase in Kme3 on eIF4A3 | maximum enrichment of eIF4A3
